According to publication PMC10667097 (2023):

Biological target: GST RBX1–CUL1–NEDD8 (human, UniProt Q13616 1-776; P62877 5-108; Q15843 1-76, NEDD8 linked to a specific site in the WHB subdomain | C-terminus linked to the cullin (isopeptide))
Assay: BLI

Sequence of GST RBX1–CUL1–NEDD8 (Q13616 whole entry, chain 1 of 3): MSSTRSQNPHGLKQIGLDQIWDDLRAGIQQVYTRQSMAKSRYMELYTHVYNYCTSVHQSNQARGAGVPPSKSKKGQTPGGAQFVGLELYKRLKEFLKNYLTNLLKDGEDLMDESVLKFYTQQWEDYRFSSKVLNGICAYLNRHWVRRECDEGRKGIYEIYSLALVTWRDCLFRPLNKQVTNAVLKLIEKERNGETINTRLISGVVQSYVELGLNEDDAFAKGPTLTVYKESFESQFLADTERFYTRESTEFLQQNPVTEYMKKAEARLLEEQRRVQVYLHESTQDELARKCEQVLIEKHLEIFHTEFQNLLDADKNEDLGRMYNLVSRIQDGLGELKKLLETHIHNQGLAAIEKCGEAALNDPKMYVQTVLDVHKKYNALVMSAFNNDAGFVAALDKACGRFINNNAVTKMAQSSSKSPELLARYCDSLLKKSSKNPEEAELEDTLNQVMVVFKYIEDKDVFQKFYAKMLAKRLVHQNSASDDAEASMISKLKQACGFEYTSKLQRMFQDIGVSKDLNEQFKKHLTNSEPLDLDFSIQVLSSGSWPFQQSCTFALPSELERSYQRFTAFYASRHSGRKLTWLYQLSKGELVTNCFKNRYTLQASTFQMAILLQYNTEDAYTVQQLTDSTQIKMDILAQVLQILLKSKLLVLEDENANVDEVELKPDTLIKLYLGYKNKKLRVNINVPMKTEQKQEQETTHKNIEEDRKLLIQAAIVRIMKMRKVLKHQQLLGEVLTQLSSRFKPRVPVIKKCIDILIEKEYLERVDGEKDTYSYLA
Sequence of GST RBX1–CUL1–NEDD8 (P62877 5-108, chain 2 of 3): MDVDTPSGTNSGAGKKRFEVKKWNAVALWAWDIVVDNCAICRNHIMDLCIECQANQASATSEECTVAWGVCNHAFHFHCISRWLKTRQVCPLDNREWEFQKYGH
Sequence of GST RBX1–CUL1–NEDD8 (Q15843 1-76, chain 3 of 3): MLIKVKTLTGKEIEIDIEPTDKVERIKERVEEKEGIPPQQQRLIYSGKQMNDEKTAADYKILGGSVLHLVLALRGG

Kd: 1.27 nM
B1: N8C_Fab3b (Fab, V domains shown)
VH: EVQLVESGGGLVQPGGSLRLSCAASGFNFSSSSIHWVRQAPGKGLEWVASISSSYGYTYYADSVKGRFTISADTSKNTAYLQMNSLRAEDTAVYYCARDPFGWAAHGVGLDYWGQGTLVTVSS
VL: DIQMTQSPSSLSASVGDRVTITCRASQSVSSAVAWYQQKPGKAPKLLIYSASSLYSGVPSRFSGSRSGTDFTLTISSLQPEDFATYYCQQSSYSLITFGQGTKVEIK
